Reference: patent EP2674440A2

Key:
[1] = target: fusion protein containing the A3B3 domain of CEA (UniProt P06731); assay: competitive ELISA against HRP-conjugated hMN-14 IgG (1 nM)
[2] = target: CEA (UniProt P06731); assay: SE-HPLC of 125I-TF2 mixed with a 20-fold molar excess of CEA

fold avidity relative to TF1 [1]: 2 fold
% of labeled TF2 shifted to a high molecular weight species [2]: 95%
Substance: TF2 (bispecific antibody)
